Residue numbers refer to the chain shown, from its start.
T1: HuCDCP1-C (Homo sapiens, UniProt Q9H5V8)
T1 construct: made in house; host or cells: HEK-293T
T1 sequence (Q9H5V8 30-667): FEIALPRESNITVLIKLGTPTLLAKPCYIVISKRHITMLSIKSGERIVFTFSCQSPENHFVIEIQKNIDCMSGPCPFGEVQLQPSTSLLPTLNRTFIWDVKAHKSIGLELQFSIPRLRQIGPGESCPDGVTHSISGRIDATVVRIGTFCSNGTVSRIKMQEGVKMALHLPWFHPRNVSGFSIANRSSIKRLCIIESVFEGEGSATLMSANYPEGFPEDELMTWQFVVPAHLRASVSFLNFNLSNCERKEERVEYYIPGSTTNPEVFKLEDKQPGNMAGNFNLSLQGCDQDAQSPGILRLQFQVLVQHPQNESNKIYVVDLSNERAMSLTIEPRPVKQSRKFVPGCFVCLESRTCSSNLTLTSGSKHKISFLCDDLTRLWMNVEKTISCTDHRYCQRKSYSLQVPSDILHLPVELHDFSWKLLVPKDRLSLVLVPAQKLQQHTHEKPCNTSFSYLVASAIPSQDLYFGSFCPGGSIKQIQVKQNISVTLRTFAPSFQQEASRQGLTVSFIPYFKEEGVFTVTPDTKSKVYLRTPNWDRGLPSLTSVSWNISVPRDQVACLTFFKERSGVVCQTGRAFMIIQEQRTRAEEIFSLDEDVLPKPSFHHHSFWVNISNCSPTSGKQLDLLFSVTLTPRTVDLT

B1: 8E5: anti-CDCP1 murine monoclonal antibody (hybridoma); VH SEQ ID NO: 258, VL SEQ ID NO: 308 (antibody, V domains shown)
VH: EVQLKESGPELKKPGETVKISCKASGYTLTDFSMHWLKQAPGKGLKWMGWINTETGAPTYADDFKGRFALSLDTSANTAYLQINNLKNEDTATYFCSRGRDYDPHFDYWGQGTTVTVSS
VL: EIVLTQSPATLSVTPGDRVSLSCRASQSISDFLHWYQQRSHESPRLLIKYASQSISGIPSRFGGSGSGSDFTLNINTVEPEDVGMYYCQSAHSFPYTFGGGTKLEIK
modifications: 8E5 heavy chain variable region; 8E5 light chain variable region
B2: 6A7: anti-CDCP1 murine monoclonal antibody (hybridoma); VH SEQ ID NO: 243, VL SEQ ID NO: 294 (antibody, V domains shown)
VH: EVQLKESGAELVRPGASVKVSCKASGYSFTSYWMNWVKQRPGQGLEWIGMIHPSDSETKLNQKFRDRASLTVDKSSSTAYMQLSSPTSEDSAVYYCTINYESFYYAMDYWGQGTTVTVSS
VL: DIVMTQSPASLAVSLGQRATISCRASKSVSTSGYSYMHWYQQKPGQPPKLLLYLASNLESGVPARFSGSGSGADFTLNIHPVEEEDAATYYCLHSRELPYTFGGGTKLEIK
modifications: 6A7 heavy chain variable region; 6A7 light chain variable region
B3: 1CP-129: humanized anti-CDCP1 antibody produced by 3C11; VH SEQ ID NO: 340, VL SEQ ID NO: 352 (antibody, V domains shown)
VH: QVQLVQSGAEVKKPGASVKVSCKASGYNFISYWLHWVRQAPGQGLEWMGGIYPGNTDTTYNQKFKGRVTMTADTSTSTVYMELSSLRSEDTAVYYCIRYDYDRGMDYWGQGTLVTVSS
VL: DIQMTQSPSSLSASVGDRVTITCRASEDIYYRLAWYQQKPGKAPKLLISGATALETGVPSRFSGSGSGKDYTLTISSLQPEDIATYYCQHYWNIPWTFGQGTKVEIK
modifications: humanized antibody 3C11 heavy chain variable region 02; humanized antibody 3C11 light chain variable region 02
B4: 14A10C5: anti-CDCP1 murine monoclonal antibody (hybridoma); VH SEQ ID NO: 257, VL SEQ ID NO: 307 (antibody, V domains shown)
VH: EVKLVESGPGILQPSQTLSLTCSFSGFSLSTSGMGVSWIRQPSGKGLEWLAHIYWDDEKRYNPSLKSRLTISKDTSSNQVFLKITSVDTADTATYYCAREGSANWEAMDYWGQGTTVTVSS
VL: DIVMTQAALSLPVSLGDQASISCRSSQNIVYTNGITYLEWYLQKPGQSPKLLIYKVSNRFSGVPDRFSGSGSATDFTLKISRVEAEDLGVYYCFQSSHVPWTFGGGTKLEIK
modifications: 14A10C5 heavy chain variable region; 14A10C5 light chain variable region
B5: 1CP-152: humanized anti-CDCP1 antibody produced by 8C9; VH SEQ ID NO: 344, VL SEQ ID NO: 354 (antibody, V domains shown)
VH: EVQLVESGGGLVQPGRSLRLSCTTSGLTFTHYHMSWVRQAPGKGLEWVAIIRNKAYGYTTDYSASVRGRFTISRDDSKSILYLQMNSLKTEDTAVYYCVREGGYGYDGTFAYWGQGTLVTVSS
VL: DIQMTQSPSSLSASVGDRVTITCRASESVDNYGISFMNWFQQKPGQAPKLLIYAASNQGSGVPSRFSGSGSGTDFTLTISSMQPEDFATYYCQQSKEVPRTFGGGTKVEIK
modifications: humanized antibody 8C9 heavy chain variable region 02; humanized antibody 8C9 light chain variable region 01
B6: 1CP-157: humanized anti-CDCP1 antibody produced by 8C9; VH SEQ ID NO: 345, VL SEQ ID NO: 355 (antibody, V domains shown)
VH: B5 VH with L45P
VL: B5 VL with A47P
modifications: humanized antibody 8C9 heavy chain variable region 03; humanized antibody 8C9 light chain variable region 02

Tests used:
[1] = system: MDA-MB-231 cells; assay: Endocytosis capacity of murine monoclonal antibody (flow cytometry internalization); format: cell-based, human; conditions: antibody 1.5 μg/mL; for Internalization MDA-MB-231 (%) 0.5 h: MDA-MB-231, 0.5 h at 37° C.; for Internalization MDA-MB-231 (%) 1 h: MDA-MB-231, 1 h at 37° C.; for Internalization MDA-MB-231 (%) 2 h: MDA-MB-231, 2 h at 37° C.
Outline: (§1)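 MDA-MB-231 and PC3 cells (EDTA-detached, Fc-blocked) bound with 1.5 μg/mL test antibody at 4° C for 30 min, washed, then held at 37° C for 0.5, 1 or 2 h. Surface antibody detected with PE anti-human IgG Fc by flow cytometry; internalization (%) = (Geo-MFI 0 h − Geo-MFI at time point)/Geo-MFI 0 h × 100%.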

[2] = system: PC3 cells; assay: as above; format: cell-based, human; conditions: antibody 1.5 μg/mL; for Internalization PC3 (%) 0.5 h: PC3, 0.5 h at 37° C.; for Internalization PC3 (%) 1 h: PC3, 1 h at 37° C.; for Internalization PC3 (%) 2 h: PC3, 2 h at 37° C.
Outline: as §1

[3] = system: MDA-MB-231 cells; assay: Effect of antibody on tumor cell proliferation (CellTiter-Glo); format: cell-based, human; conditions: MDA-MB-231, 96 h
Experimental: (§2) 3000 cells (breast cancer MDA-MB-231, prostate cancer PC-3 cells)/well were plated onto 96-well plates overnight, an antibody at a final concentration of 500 nM to 0.00128 nM (100 nM to 0.000256 nM, 100, 20, 4, 0.8, 0.16, 0.032, 0.0064, 0.00128, 0.000256 nM, respectively) was added; after a 5-fold dilution across 9 concentration points and culturing in a CO2 incubator at 37° C. for 96 h, half of the medium (100 μL) was discarded, and 100 μL of CellTiter-Glo Luminescent Cell Viability assay reagent (Promega, cat #G7570) was added to detect signal values on a BMG microplate reader. The inhibition of antibody on tumor cell growth was calculated by graphpad fitting based on the signal value and antibody concentration.

[4] = system: PC-3 cells; assay: as above; format: cell-based, human; conditions: PC-3, 96 h
Experimental: as §2

[5] = system: MDA-MB-231 cells; assay: Transwell tumor cell migration experiment; format: cell-based, human; conditions: MDA-MB-231, antibody 10 μg/ml
Experimental: In order to determine the effect of antibodies on tumor cell metastasis, the migration ability of tumor cells was examined in this study according to a transwell experiment. The specific cell migration experiment involved culturing and collecting MDA-MB-231 cells, washing them once with PBS, adjusting the density to 8×10^5 cells/mL, adding the antibody to be tested to the cells such that the working concentration thereof was 10 μg/ml, co-incubating for 30 mins, adding a cell suspension to the upper chamber of the transwell chamber, placing the transwell chamber in the incubator for 12-48 h, then removing the chamber (transwell chamber, to examine cell migration ability), immobilizing the cells, staining the cells with crystal violet for 15 mins, washing, air drying, mounting, and taking photos of 4-5 fields of view under a microscope, and counting the number or area of the stained cells using imageJ analysis software, the number or area was used as the basis for determining tumor cell migration.

[6] = biological target: T1, HuCDCP1-C; assay: Caterra affinity of humanized anti-CDCP1 antibodies; format: binding; conditions: HuCDCP1-C 2 μg/ml immobilized
Experimental: The humanized anti-CDCP1 antibodies obtained from Example 11 were subjected to gene cloning, constructed into pTT5 expression vector for a small amount of expression in CHO cells (Expi-CHOS: Gibco A29127), and purified with an Fc affinity column (AT Protein A Diamond Plus. No. AA402312). Antibody purity was analyzed by HPLC and determined by Nanodrop. High-throughput affinity assay was carried out for a small amount of antibodies by Caterra.

[7] = system: MDA-MB-231 cells; assay: Endocytosis capacity of humanized antibodies; format: cell-based, human; conditions: antibody 1.5 μg/mL; for 1 h endocytosis (%): MDA-MB-231, 1 h at 37° C.; for 2 h endocytosis (%): MDA-MB-231, 2 h at 37° C.
Experimental: The endocytosis capacity of the anti-CDCP1 humanized antibody was detected with reference to example 5. MDA-MB-231 cells were subjected to digestion with 5 mM EDTA, and plated at 3×10^4 cells/well after cell counting. After adding an Fc blocker and blocking at room temperature for 10 mins, a test antibody (1.5 μg/mL) was added, and the mixture was incubated at 4° C. for 30 mins, centrifuged, and washed twice with PBS+2% FBS, then the cells were divided into three equal portions (labeled as 0 h, 1 h, 2 h), cells labeled as 1 h and 2 h time points were added to 200 μL of cell culture medium, and cultured at 37° C. for 1 h and 2 h, respectively. Cells at 0 h point were centrifuged, a secondary antibody (PE anti-human IgG Fc Antibody, Biolegend, 410708) was added, and the mixture was incubated at 4° C. for 30 mins, centrifuged, and washed twice with PBS+2% FBS, and detection was performed using a flow cytometer. After incubation of cells labeled as 1 h and 2 h points at 37° C. was completed, a secondary antibody was added (in the same steps as those at 0 h point), Geo-MFI of the signal under the same voltage was collected as detection signal at 0 h, and antibody internalization rate was calculated according to the following equation: Internalization (%)=(Geo-MFI (0 h)-Geo-MFI (1, 2 h))/Geo-MFI (0 h)×100%.

Row | ka [6] | kd [6] | Molecule | Internalization MDA-MB-231 (%) 0.5 h [1] | Internalization MDA-MB-231 (%) 1 h [1] | Internalization MDA-MB-231 (%) 2 h [1] | Internalization PC3 (%) 0.5 h [2] | Internalization PC3 (%) 1 h [2] | Internalization PC3 (%) 2 h [2] | effect on tumor cell growth (FIG. 4a) [3] | effect on tumor cell growth (FIG. 4b) [4] | effect on tumor cell migration (transwell, FIG. 4c) [5] | 1 h endocytosis (%) [7] | 2 h endocytosis (%) [7]
1 |  |  | B1 | 24.32% | 38.20% | 53.26% | 6.54% | 17.17% | 42.94% | did not exhibit an effect on tumor cell growth | did not exhibit an effect on tumor cell growth | better capability to inhibit tumor cell migration than SEQ135 |  | 
2 |  |  | B2 | 28.97% | 43.77% | 58.78% | 22.99% | 35.14% | 49.86% | did not exhibit an effect on tumor cell growth | did not exhibit an effect on tumor cell growth | better capability to inhibit tumor cell migration than SEQ135 |  | 
3 | 160000 M⁻¹ s⁻¹ | 1e-05 s⁻¹ | B3 |  |  |  |  |  |  |  |  |  | 36.18% | 54.25%
4 |  |  | B4 |  |  | 39.23% |  |  | 51.73% |  |  | better capability to inhibit tumor cell migration than SEQ135 |  | 
5 | 114000 M⁻¹ s⁻¹ | 0.000465 s⁻¹ | B5 |  |  |  |  |  |  |  |  |  | 54.39% | 69.96%
6 | 122000 M⁻¹ s⁻¹ | 0.000385 s⁻¹ | B6 |  |  |  |  |  |  |  |  |  | 56.06% | 70.74%

— patent US20260250410A1, “ANTIBODY AND USE THEREOF” (SICHUAN HUIYU PHARMACEUTICAL CO., LTD., priority 2022, published 2026)
